# Experimental data as given in PMC4072508, “Genome-Wide Prediction and Validation of Peptides That Bind Human Prosurvival Bcl-2 Proteins” (PLoS Computational Biology, 2014).
# Target: Bcl-xL, Q07817
# Experiment: peptide SPOT array, c-Myc-tagged receptor at 1 uM or 100 nM, anti-c-Myc-Cy3
# Bcl-xL, Q07817, sequence (Q07817 1-209): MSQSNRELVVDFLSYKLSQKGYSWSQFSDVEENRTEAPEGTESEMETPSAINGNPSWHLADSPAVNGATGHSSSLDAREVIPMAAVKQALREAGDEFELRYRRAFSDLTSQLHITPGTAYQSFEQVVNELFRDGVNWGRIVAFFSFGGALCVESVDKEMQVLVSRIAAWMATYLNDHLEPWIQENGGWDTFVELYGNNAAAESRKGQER
row,Binder,SPOT signal as a fraction of Bim BH3's signal on the same receptor and array
1,RVIPHDGAEDLWIQAQELVRNMKENL [PLB1],0.03
2,LQIIPTLCHLLRALSDDGVSDLEDPT [DFNA5],0.03
3,LRQMQECAKRIAKVSAEAKLEIDEET [SKIV2L2],0.03
4,LREVRESIRFDRQVGRDWVQRRREAL,1.14
5,EARVLEEASRLEEEAQQTRLQLQQRL [EVC],0.02
6,GELAQVSGLEDRKWVDELFIIIMDML [mTOR],0.02
7,GSGPSKTSRVLQNVAFSVQKEVEKNL [BCL2A1],0.06
8,LHNLVKAAQSLDEMSQTITDLLSEQK [RB1CC1],0.03
9,NVGCQQDSEELLKLATSISETLEEKP [UBA6],0.02
10,PFGLQGNSEYLIEFSRNLGKSSEHLL [CGNL1],0.03
11,DFMGRTFAKPLVKMLDEAYCPPRFPP [OTOF],0.17
12,LREVRESIRFLRQVLRDWVQRRREAL,0.44
13,VYILRKAARRLAQVSRAAGVRVGLLS [CACNA1G],0.76
14,AYRGRGIAKHDAKAALDFVVEEDLKA,0.21
15,NRKGEKNGKGDRHFSMKVCEKVQRKG,0.47
16,RTNNYQLSDELRKNLVELTSLRQKVA [GRIPAP1],0.52
17,RAELTGLARRLADRARELQETNLRAV [RIMBP3C],0.22
18,TCELGEFVKNIDQVSSEVLEGWPDSY [TLR1],0.02
19,RYPILENPEIDRKTADDFLNRIALTD [CCNH],0.02
20,IKKSVTKGEMDKIVGKRFREHFPEIL [MAGEB2],0.4
21,DNHKKKTVKMDEYLGKDVLHGVFNYL [CASP5],0.11
22,HSEITPYATDLAQTSEKLIPHLHKLP [CCDC129],0.02
23,GFQVLNAIENLDDNAQRYDLDGLEKA [C9orf167],0.03
24,AHKARALARLDRQTALAAFSDFKRLQ [FAM43B],1.22
25,LHQAKDFGNYLFNFASAATKKITESV [SYAP1],0.21
26,PKELEGYIQKLQNAAERLATENRKLR [DYNC2H1],0.09
27,GAQHSTMTSTDRRLGEDIFKGVVTKG [CCDC138],0.03
28,RRRLLLASKELHQVAHDLDDELAWVQ [SPTBN4],0.06

row,Binder,SPOT signal as a fraction of Bim BH3's signal on the same receptor and array
1,FQEAKQFGQKLQDLAEHSDPEVRDKV [ARMCX5],0.02
2,EVNMSLSGRYLEELSQRYRKQMEEMQ [C1orf9],0.03
3,FNIPREAAERLRILAQSNNQQLRDLG [NCOA6],0.08
4,TDENKKVGLALKDLLKQYSDRLECCE [NUB1],0.03
5,KSRLVQQSKALKELLDELQERCQRPA [TRIM58],0.11
6,QFEIEKSCELLFQMAESVDYDYDVQD [DHX40],0.02
7,PFDCRDYAVVDRKYADKIYSISMKHP [FOLH1],0.45
8,SQDFSELSTQLTGVARDLQEEMLPGS [MON1A],0.03
9,GTKSQLLAKRLLDLSNEGFTNWEFMT [PCSK6],0.03
10,NRKGEKNGKGLRHFLMKVCEKVQRKG,0.42
11,FEKLRMIAKEDRHVGRMASVNMDPAL,0.13
12,VIKQRRLPDQLSKLLDRIQLSGRYYL,0.84
13,FERVEQMCIQIKEVLDRVNYIKRSLQ [TRPM7],0.18
14,FEKLRMIAKEIRHVLRMASVNMDPAL,0.09
15,CLSCDLCGCRDGEVGRRLYYKLGRKL [LMO2],1.08
16,MGVLAAAARCDVRGADRMSKWTSKRG [MRPL41],0.56
17,KYDPSKYCHNLKKILEDFSNTIPISS [NOL8],0.28
18,RQAFYLHTTKLTRILRRLCREILRPW [MTA1],0.85
19,REEIRKVVQSLEQTAREILTLLQGVH [TSN],0.04
20,AYRGRGIAKHLAKALLDFVVEEDLKA,0.17
21,YGRLRPRARSLSKASTAINWLTKKFL [MYO15A],1.39
22,DLQIYQPGRRLQTVSKESASRVEEEE [SMG6],0.03
23,KFELEQNIKELNTLADQVDTTHELLT [APOL5],0.02
24,DTIFHRAAVRDRDLGGAILRHARRQA [BRPF3],1.5
25,KAIFDRLCKQLEKIGQQVDREPGDVA [ORC6L],0.04
26,PEDLQDVGWFLHKLLQQILKKEKEKK [TLR5],0.09
27,QEELQDWVKKIREVAQTADARLTEGK [PLCG1],0.03
